Numbered stars: 1 amine (or outer) side, 2 acyl side, 3 side chain; on linkers, the order of the positions; unused ones are H or OH. Square brackets hold non-standard residues; d marks the D form. Primed or numbered codes have the meaning given here. Side chains are listed from the residue outwards. Ends that are not written are not given here. * marks the point of attachment. C20 diacid = O=C(O)CCCCCCCCCCCCCCCCCCC(=O)*; C18 diacid = O=C(O)CCCCCCCCCCCCCCCCC(=O)*; C16 diacid = O=C(O)CCCCCCCCCCCCCCC(=O)*; γGlu = O=C(O)[C@H](CCC(=O)[*:2])N[*:1]; Iva = CC[C@](C)(N)C(=O)O; PEG3′ = not defined here; Abu = CC[C@H](N)C(=O)O; Aib = CC(C)(N)C(=O)O
T1: full-length human GIPR (GenBank NM_000164) with an N-terminal FLAG tag on HEK-293T cells (human), P48546
T1 chain: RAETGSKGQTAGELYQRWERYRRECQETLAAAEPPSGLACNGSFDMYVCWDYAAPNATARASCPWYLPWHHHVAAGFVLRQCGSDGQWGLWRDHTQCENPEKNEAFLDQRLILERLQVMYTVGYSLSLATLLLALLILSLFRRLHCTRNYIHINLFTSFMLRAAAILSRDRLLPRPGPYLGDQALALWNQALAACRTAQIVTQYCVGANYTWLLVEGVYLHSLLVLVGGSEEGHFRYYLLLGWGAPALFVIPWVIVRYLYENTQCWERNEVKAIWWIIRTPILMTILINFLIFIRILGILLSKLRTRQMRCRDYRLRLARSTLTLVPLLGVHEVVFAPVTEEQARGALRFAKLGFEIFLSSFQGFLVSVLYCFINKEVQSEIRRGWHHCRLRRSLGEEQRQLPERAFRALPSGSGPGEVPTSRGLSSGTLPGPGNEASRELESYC

T2: full-length human GLP-1R (GenBank NM_002062) with an N-terminal FLAG tag on HEK-293T cells (human), P43220
T2 chain: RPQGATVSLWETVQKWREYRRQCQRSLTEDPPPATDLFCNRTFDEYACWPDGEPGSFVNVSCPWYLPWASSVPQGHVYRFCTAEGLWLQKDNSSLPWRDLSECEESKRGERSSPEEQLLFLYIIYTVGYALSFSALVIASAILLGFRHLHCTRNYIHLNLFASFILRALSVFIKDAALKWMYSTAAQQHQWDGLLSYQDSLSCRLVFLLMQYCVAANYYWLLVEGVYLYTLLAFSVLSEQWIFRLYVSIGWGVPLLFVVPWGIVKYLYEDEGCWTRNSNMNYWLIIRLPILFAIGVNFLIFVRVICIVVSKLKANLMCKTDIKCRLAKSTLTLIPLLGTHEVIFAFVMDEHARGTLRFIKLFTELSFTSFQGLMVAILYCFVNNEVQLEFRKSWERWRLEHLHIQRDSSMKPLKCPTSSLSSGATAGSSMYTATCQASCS


Biological target: T1, full-length human GIPR (GenBank …)
Experiment: cell-based or functional assay

Row | Binder | GIP EC50(pM)
1 | Y[Aib]EGTFISDYSIALDR[Aib]HQ[Aib]NFVNW[Iva]LAQRPSSK([γGlu-γGlu-C18 diacid])APPPS (ends and bridges not checked) [Compound No. 550] | 0.83
2 | Y[Aib]EGTFISDYSIALDR[Aib]HQ[Aib]NFVNW[Iva]LAQRPSSGAPPK([PEG3′-γGlu-C16 diacid])S (ends and bridges not checked) [Compound No. 530] | 0.36
3 | Y[Aib]EGTFISDYSIALDR[Aib]HQ[Aib]NFVNW[Iva]LAQRPK([γGlu-γGlu-C18 diacid])SGAPPPS (ends and bridges not checked) [Compound No. 548] | 0.81
4 | Y[Aib]EGTFISDYSIALDR[Aib]HQ[Aib]NFVNW[Iva]LAQRPSSGAPPPK([Abu-γGlu-C18 diacid]) (ends and bridges not checked) [Compound No. 545] | 0.43
5 | Y[Aib]EGTFISDYSIALDR[Aib]HQ[Aib]NFVNW[Iva]LAQRPSSGAK([Abu-γGlu-C18 diacid])PPS (ends and bridges not checked) [Compound No. 542] | 1.21
6 | Y[Aib]EGTFISDYSIALDR[Aib]HQ[Aib]NFVNW[Iva]LAQRK([Abu-γGlu-C18 diacid])SSGAPPPS (ends and bridges not checked) [Compound No. 537] | 1.32
7 | Y[Aib]EGTFISDYSIALDR[Aib]HQ[Aib]NFVNW[Iva]LAQRPSSGK([Abu-γGlu-C18 diacid])PPPS (ends and bridges not checked) [Compound No. 541] | 0.73
8 | Y[Aib]EGTFISDYSIALDR[Aib]HQ[Aib]NFVNW[Iva]LAQRPSSGAPK([PEG3′-γGlu-C20 diacid])PS (ends and bridges not checked) [Compound No. 529] | 1.3
9 | Y[Aib]EGTFISDYSIALDR[Aib]HQ[Aib]NFVNW[Iva]LAQRPSSGAPPK([Abu-γGlu-C18 diacid])S (ends and bridges not checked) [Compound No. 544] | 0.94
10 | Y[Aib]EGTFISDYSIALDR[Aib]HQ[Aib]NFVNW[Iva]LAQRPSSGAPPPK([PEG3′-γGlu-C20 diacid]) (ends and bridges not checked) [Compound No. 535] | 1.54
11 | Y[Aib]EGTFISDYSIALDR[Aib]HQ[Aib]NFVNW[Iva]LAQRPSSGAPK([PEG3′-γGlu-C18 diacid])PS (ends and bridges not checked) [Compound No. 528] | 0.87
12 | Y[Aib]EGTFISDYSIALDR[Aib]HQ[Aib]NFVNW[Iva]LAQRPK([Abu-γGlu-C18 diacid])SGAPPPS (ends and bridges not checked) [Compound No. 538] | 1.8
13 | Y[Aib]EGTFISDYSIALDR[Aib]HQ[Aib]NFVNW[Iva]LAQRK([γGlu-γGlu-C18 diacid])SSGAPPPS (ends and bridges not checked) [Compound No. 547] | 0.41
14 | Y[Aib]EGTFISDYSIALDR[Aib]HQ[Aib]NFVNW[Iva]LAQRPSSGAPPK([PEG3′-γGlu-C20 diacid])S (ends and bridges not checked) [Compound No. 532] | 2.05
15 | Y[Aib]EGTFISDYSIALDR[Aib]HQ[Aib]NFVNW[Iva]LAQRPSK([Abu-γGlu-C18 diacid])GAPPPS (ends and bridges not checked) [Compound No. 539] | 2.66
16 | Y[Aib]EGTFISDYSIALDR[Aib]HQ[Aib]NFVNW[Iva]LAQRPSSGK([γGlu-γGlu-C18 diacid])PPPS (ends and bridges not checked) [Compound No. 551] | 0.6
17 | Y[Aib]EGTFISDYSIALDR[Aib]HQ[Aib]NFVNW[Iva]LAQRPSSGAPK([PEG3′-γGlu-C16 diacid])PS (ends and bridges not checked) [Compound No. 527] | 0.37
18 | Y[Aib]EGTFISDYSIALDR[Aib]HQ[Aib]NFVNW[Iva]LAQRPSSGAPPPK([PEG3′-γGlu-C16 diacid]) (ends and bridges not checked) [Compound No. 533] | 0.59
19 | Y[Aib]EGTFISDYSIALDR[Aib]HQ[Aib]NFVNW[Iva]LAQRPSSGAPK([Abu-γGlu-C18 diacid])PS (ends and bridges not checked) [Compound No. 543] | 0.72
20 | Y[Aib]EGTFISDYSIALDR[Aib]HQ[Aib]NFVNW[Iva]LAQRPSSGAPPPK([PEG3′-γGlu-C18 diacid]) (ends and bridges not checked) [Compound No. 534] | 0.81
21 | Y[Aib]EGTFISDYSIALDR[Aib]HQ[Aib]NFVNW[Iva]LAQRPSSGAPPK([PEG3′-γGlu-C18 diacid])S (ends and bridges not checked) [Compound No. 531] | 1.02
22 | Y[Aib]EGTFISDYSIALDR[Aib]HQ[Aib]NFVNW[Iva]LAQRPSSK([Abu-γGlu-C18 diacid])APPPS (ends and bridges not checked) [Compound No. 540] | 3.01
23 | Y[Aib]EGTFISDYSIALDR[Aib]HQ[Aib]NFVNW[Iva]LAQRPSK([γGlu-γGlu-C18 diacid])GAPPPS (ends and bridges not checked) [Compound No. 549] | 0.85
24 | Y[Aib]EGTFISDYSIALDR[Aib]HQ[Aib]NFVNW[Iva]LAQRPSSGAK([γGlu-γGlu-C18 diacid])PPS (ends and bridges not checked) [Compound No. 552] | 1.12

Biological target: T2, full-length human GLP-1R (GenBank …)
Experiment: cell-based or functional assay

Row | Binder | GLP EC50 [nM]
25 | Y[Aib]EGTFISDYSIALDR[Aib]HQ[Aib]NFVNW[Iva]LAQRPSSK([γGlu-γGlu-C18 diacid])APPPS (ends and bridges not checked) [Compound No. 550] | > 1000
26 | Y[Aib]EGTFISDYSIALDR[Aib]HQ[Aib]NFVNW[Iva]LAQRPSSGAPPK([PEG3′-γGlu-C16 diacid])S (ends and bridges not checked) [Compound No. 530] | > 1000
27 | Y[Aib]EGTFISDYSIALDR[Aib]HQ[Aib]NFVNW[Iva]LAQRPK([γGlu-γGlu-C18 diacid])SGAPPPS (ends and bridges not checked) [Compound No. 548] | > 1000
28 | Y[Aib]EGTFISDYSIALDR[Aib]HQ[Aib]NFVNW[Iva]LAQRPSSGAPPPK([Abu-γGlu-C18 diacid]) (ends and bridges not checked) [Compound No. 545] | > 1000
29 | Y[Aib]EGTFISDYSIALDR[Aib]HQ[Aib]NFVNW[Iva]LAQRPSSGAK([Abu-γGlu-C18 diacid])PPS (ends and bridges not checked) [Compound No. 542] | > 1000
30 | Y[Aib]EGTFISDYSIALDR[Aib]HQ[Aib]NFVNW[Iva]LAQRK([Abu-γGlu-C18 diacid])SSGAPPPS (ends and bridges not checked) [Compound No. 537] | > 1000
31 | Y[Aib]EGTFISDYSIALDR[Aib]HQ[Aib]NFVNW[Iva]LAQRPSSGK([Abu-γGlu-C18 diacid])PPPS (ends and bridges not checked) [Compound No. 541] | > 1000
32 | Y[Aib]EGTFISDYSIALDR[Aib]HQ[Aib]NFVNW[Iva]LAQRPSSGAPK([PEG3′-γGlu-C20 diacid])PS (ends and bridges not checked) [Compound No. 529] | > 1000
33 | Y[Aib]EGTFISDYSIALDR[Aib]HQ[Aib]NFVNW[Iva]LAQRPSSGAPPK([Abu-γGlu-C18 diacid])S (ends and bridges not checked) [Compound No. 544] | > 1000
34 | Y[Aib]EGTFISDYSIALDR[Aib]HQ[Aib]NFVNW[Iva]LAQRPSSGAPPPK([PEG3′-γGlu-C20 diacid]) (ends and bridges not checked) [Compound No. 535] | > 1000
35 | Y[Aib]EGTFISDYSIALDR[Aib]HQ[Aib]NFVNW[Iva]LAQRPSSGAPK([PEG3′-γGlu-C18 diacid])PS (ends and bridges not checked) [Compound No. 528] | > 1000
36 | Y[Aib]EGTFISDYSIALDR[Aib]HQ[Aib]NFVNW[Iva]LAQRPK([Abu-γGlu-C18 diacid])SGAPPPS (ends and bridges not checked) [Compound No. 538] | > 1000
37 | Y[Aib]EGTFISDYSIALDR[Aib]HQ[Aib]NFVNW[Iva]LAQRK([γGlu-γGlu-C18 diacid])SSGAPPPS (ends and bridges not checked) [Compound No. 547] | > 1000
38 | Y[Aib]EGTFISDYSIALDR[Aib]HQ[Aib]NFVNW[Iva]LAQRPSSGAPPK([PEG3′-γGlu-C20 diacid])S (ends and bridges not checked) [Compound No. 532] | > 1000
39 | Y[Aib]EGTFISDYSIALDR[Aib]HQ[Aib]NFVNW[Iva]LAQRPSK([Abu-γGlu-C18 diacid])GAPPPS (ends and bridges not checked) [Compound No. 539] | > 1000
40 | Y[Aib]EGTFISDYSIALDR[Aib]HQ[Aib]NFVNW[Iva]LAQRPSSGK([γGlu-γGlu-C18 diacid])PPPS (ends and bridges not checked) [Compound No. 551] | > 1000
41 | Y[Aib]EGTFISDYSIALDR[Aib]HQ[Aib]NFVNW[Iva]LAQRPSSGAPK([PEG3′-γGlu-C16 diacid])PS (ends and bridges not checked) [Compound No. 527] | 479
42 | Y[Aib]EGTFISDYSIALDR[Aib]HQ[Aib]NFVNW[Iva]LAQRPSSGAPPPK([PEG3′-γGlu-C16 diacid]) (ends and bridges not checked) [Compound No. 533] | 776
43 | Y[Aib]EGTFISDYSIALDR[Aib]HQ[Aib]NFVNW[Iva]LAQRPSSGAPK([Abu-γGlu-C18 diacid])PS (ends and bridges not checked) [Compound No. 543] | > 1000
44 | Y[Aib]EGTFISDYSIALDR[Aib]HQ[Aib]NFVNW[Iva]LAQRPSSGAPPPK([PEG3′-γGlu-C18 diacid]) (ends and bridges not checked) [Compound No. 534] | > 1000
45 | Y[Aib]EGTFISDYSIALDR[Aib]HQ[Aib]NFVNW[Iva]LAQRPSSGAPPK([PEG3′-γGlu-C18 diacid])S (ends and bridges not checked) [Compound No. 531] | > 1000
46 | Y[Aib]EGTFISDYSIALDR[Aib]HQ[Aib]NFVNW[Iva]LAQRPSSK([Abu-γGlu-C18 diacid])APPPS (ends and bridges not checked) [Compound No. 540] | > 1000
47 | Y[Aib]EGTFISDYSIALDR[Aib]HQ[Aib]NFVNW[Iva]LAQRPSK([γGlu-γGlu-C18 diacid])GAPPPS (ends and bridges not checked) [Compound No. 549] | > 1000
48 | Y[Aib]EGTFISDYSIALDR[Aib]HQ[Aib]NFVNW[Iva]LAQRPSSGAK([γGlu-γGlu-C18 diacid])PPS (ends and bridges not checked) [Compound No. 552] | > 1000
